Experimental data reported in patent publication US20240262878A1, “PHOTOACTIVATABLE GASDERMIN PROTEINS” (THE BOARD OF TRUSTEES OF THE UNIVERSITY OF ILLINOIS, priority 2021, published 2024).
Entries after “also recorded” stand apart in the source; their conditions may differ.

test system: Hela cells; assay: Optogenetic activation of PhoDer, membrane-targeted jRCaMP1b calcium flare imaging and fluctuation analysis; assay type: cell-based; conditions: PhoDer mutants in live Hela cells vs PhoDer
Method: Cloning. Cloning and subcloning were performed using the DH5a strain of E. coli. All mammalian constructs were cloned into the pcDNA3.0 vector with a modified multiple cloning site. Plasmids were generated as follows. Gasdermin D gene was obtained from Addgene. A diffusible optogenetic GSDMD, referred to herein as “PhoDer” and set forth in SEQ ID NO: 33, was constructed according to the reported domains structure by ligating three fragments into the pcDNA3.0 vector in one reaction via Gibson Assembly (New England BioLabs). For each fragment, PCR was specifically designed to create appropriate complementation. The jRCaMP1b gene, encoding a sensitive red protein calcium indicator, was obtained from Addgene. Membrane targeted calcium indicator jRCaMP1b was constructed by ligating a PCR fragment of the calcium indicator into the restriction enzyme sites BamHI and EcoRI in a modified pcDNA3.0 vector carrying a 5′ fragment encoding the N-terminal Lyn kinase localization sequence.
Cell Culture. HeLa and RAW264.7 cells were maintained in Dulbecco's Modified Eagle Medium (DMEM) medium supplemented with 10% fetal bovine serum (FBS) and 1% penicillin and streptomycin. Cells were transfected at 50%-70% confluency using LIPOFECTAMINE® 2000 transfection reagent and incubated for 24 hours before imaging. Cells were never serum-starved. To examine endogenous inflammatory activation, RAW264.7 cells were treated with 100 ng/μL lipopolysaccharide (LPS, Invivogen) at the beginning of each experiment. Pretreatment to bias membrane composition by phosphatidylinositol 4,5-bisphosphate (PIP2) modifying enzymes was performed by incubating Hela cells in Hanks' Balanced Salt Solution (HBSS) buffer with inhibitors at 37° C. for 10 minutes to prior imaging at the following concentrations: for phosphoinositide 3-kinase (PI3K), cells were treated 10 μM wortmannin (Tocris); and for phospholipase C (PLC), cells were treated with 10 μM U73122 (Tocris). Cells were removed from the incubator and allowed to come to thermal equilibrium before being imaged in HBSS buffer at room temperature.
Fluorescence Imaging, Optogenetic Activation, and Post-Processing. All epifluorescence imaging was performed on a customized Nikon Ti2-E microscope equipped with individual control over excitation (EX) and emission (EM) filters, a fast LED light source (Lumencor) with fluid-cooled EMCCD (Andor), motorized stage, and examined under a 40× or 100× oil immersion objective under live focus tracking. For RFP, excitation (EX) and emission (EM) filter combinations (maxima/bandwidth in nm) are indicated. Cells were imaged at 12-15 second intervals. Emission intensities of individual cells were background-subtracted before normalization to zero time point, when optogenetic activation began. In the optical setup, optogenetic activation of PhoDer was performed using an EX filter at 440/20 nm for 20-30 ms across whole fields of view. This replicated the progression of endogenous activation of GSDMD observed in LPS-stimulated RAW264.7 cells. […] Where applicable, inhibitors were treated at the indicated concentration for 15 minutes prior to imaging.
Fluctuation Analysis and Quantification. To automate the objective isolation and quantitation of calcium flares, a post-processing algorithm was developed based on principles and normalization scheme detailed in work on photochromic stochastic optical fluctuation imaging (pcSOFI) (Dedecker et al. (2012) Proc. Natl. Acad. Sci. USA 109: 10909-10914). Briefly, fluctuation caused by the flares generate high autocorrelation signals in time-averaged series and yield high contrast at locales of the greatest ion flux. To truly reflect the local flux change, it is then normalized to remove dependence on the number of biosensors reporting at the given location using a scheme detailed previously (Mo et al. (2017) Nat. Methods 14 (4): 427-434). […]

Row | Molecule | pore opening/closing dynamics (automated flare quantification)
1 | m3: PhoDer mutant R42Q/K43Q (SEQ ID NO:36) (protein) MGSAFERVVRRVVQELDHGGEFIPVTSLQSSTGFQPYCLVVQQPSSSWFWKPRYKCVNLSIKDILEPDAAEPDVQRGRSFHFYDAMDGQIQGSVELAAPGQAKIAGGAAVSDSSSTSMNVYSLSVDPNTWQTLLHERHLRQPEHKVLQQLRSRGDNVYVVTEVLQTQKEVEVTRTHKREGSGRFSLPGATCLQGEGQGHLSQKKTVTIPSGSTLAFRVAQLVIDSDLDVLLFPDKKQRTFQPPATGHKRSTSEGAWPQLPSGLSMMRCLHNGGGSVIPDYFKQSFPEGYSWERSMTYEDGGICIATNDITMEGDSFINKIHFKGTNFPPNGPVMQKRTVGWEASTEKMYERDGVLKGDVKMKLLLKGGGHYRCDYRTTYKVKQKPVKLPDYHFVDHRIEILSHDKDYNKVKLYEHAVARNSTDSMDELYKGGSGGMVSKGEETITSVIKPDMKNKLRMEGNVNGHAFVIEGEGSGKPFEGIQTIDLEVKEGAPLPFAYDILTTAFHYGNRVFTKYPRGGGVPAEGAFTEDFQGLRAEVETISKELELLDRELCQLLLEGLEGVLRDQLALRALEEALEQGQSLGPVEPLDGPAGAVLECLVLSSGMLVPELAIPVVYLLGALTMLSETQHKLLAEALESQTLLGPLELVGSLLEQSAPWQERSTMSLPPGLLGNSWGEGAPAWVLLDECGLELGEDTPHVCWEPQAQGRMCALYASLALLSGLSQEPH | significantly reduced pore opening/closing dynamics; also recorded: significant changes in pore activity
2 | m5: PhoDer mutant R42Q/K43Q/K51Q/R53Q/K55Q (SEQ ID NO:38) (protein) MGSAFERVVRRVVQELDHGGEFIPVTSLQSSTGFQPYCLVVQQPSSSWFWQPQYQCVNLSIKDILEPDAAEPDVQRGRSFHFYDAMDGQIQGSVELAAPGQAKIAGGAAVSDSSSTSMNVYSLSVDPNTWQTLLHERHLRQPEHKVLQQLRSRGDNVYVVTEVLQTQKEVEVTRTHKREGSGRFSLPGATCLQGEGQGHLSQKKTVTIPSGSTLAFRVAQLVIDSDLDVLLFPDKKQRTFQPPATGHKRSTSEGAWPQLPSGLSMMRCLHNGGGSVIPDYFKQSFPEGYSWERSMTYEDGGICIATNDITMEGDSFINKIHFKGTNFPPNGPVMQKRTVGWEASTEKMYERDGVLKGDVKMKLLLKGGGHYRCDYRTTYKVKQKPVKLPDYHFVDHRIEILSHDKDYNKVKLYEHAVARNSTDSMDELYKGGSGGMVSKGEETITSVIKPDMKNKLRMEGNVNGHAFVIEGEGSGKPFEGIQTIDLEVKEGAPLPFAYDILTTAFHYGNRVFTKYPRGGGVPAEGAFTEDFQGLRAEVETISKELELLDRELCQLLLEGLEGVLRDQLALRALEEALEQGQSLGPVEPLDGPAGAVLECLVLSSGMLVPELAIPVVYLLGALTMLSETQHKLLAEALESQTLLGPLELVGSLLEQSAPWQERSTMSLPPGLLGNSWGEGAPAWVLLDECGLELGEDTPHVCWEPQAQGRMCALYASLALLSGLSQEPH | significantly reduced pore opening/closing dynamics; also recorded: significant changes in pore activity
3 | m4: PhoDer mutant R42E/K43E (SEQ ID NO:37) (protein) MGSAFERVVRRVVQELDHGGEFIPVTSLQSSTGFQPYCLVVEEPSSSWFWKPRYKCVNLSIKDILEPDAAEPDVQRGRSFHFYDAMDGQIQGSVELAAPGQAKIAGGAAVSDSSSTSMNVYSLSVDPNTWQTLLHERHLRQPEHKVLQQLRSRGDNVYVVTEVLQTQKEVEVTRTHKREGSGRFSLPGATCLQGEGQGHLSQKKTVTIPSGSTLAFRVAQLVIDSDLDVLLFPDKKQRTFQPPATGHKRSTSEGAWPQLPSGLSMMRCLHNGGGSVIPDYFKQSFPEGYSWERSMTYEDGGICIATNDITMEGDSFINKIHFKGTNFPPNGPVMQKRTVGWEASTEKMYERDGVLKGDVKMKLLLKGGGHYRCDYRTTYKVKQKPVKLPDYHFVDHRIEILSHDKDYNKVKLYEHAVARNSTDSMDELYKGGSGGMVSKGEETITSVIKPDMKNKLRMEGNVNGHAFVIEGEGSGKPFEGIQTIDLEVKEGAPLPFAYDILTTAFHYGNRVFTKYPRGGGVPAEGAFTEDFQGLRAEVETISKELELLDRELCQLLLEGLEGVLRDQLALRALEEALEQGQSLGPVEPLDGPAGAVLECLVLSSGMLVPELAIPVVYLLGALTMLSETQHKLLAEALESQTLLGPLELVGSLLEQSAPWQERSTMSLPPGLLGNSWGEGAPAWVLLDECGLELGEDTPHVCWEPQAQGRMCALYASLALLSGLSQEPH | significantly reduced pore opening/closing dynamics
4 | m6: PhoDer mutant R42E/K43E/K51E/R53E/K55E (SEQ ID NO: 39) (protein) MGSAFERVVRRVVQELDHGGEFIPVTSLQSSTGFQPYCLVVEEPSSSWFWEPEYECVNLSIKDILEPDAAEPDVQRGRSFHFYDAMDGQIQGSVELAAPGQAKIAGGAAVSDSSSTSMNVYSLSVDPNTWQTLLHERHLRQPEHKVLQQLRSRGDNVYVVTEVLQTQKEVEVTRTHKREGSGRFSLPGATCLQGEGQGHLSQKKTVTIPSGSTLAFRVAQLVIDSDLDVLLFPDKKQRTFQPPATGHKRSTSEGAWPQLPSGLSMMRCLHNGGGSVIPDYFKQSFPEGYSWERSMTYEDGGICIATNDITMEGDSFINKIHFKGTNFPPNGPVMQKRTVGWEASTEKMYERDGVLKGDVKMKLLLKGGGHYRCDYRTTYKVKQKPVKLPDYHFVDHRIEILSHDKDYNKVKLYEHAVARNSTDSMDELYKGGSGGMVSKGEETITSVIKPDMKNKLRMEGNVNGHAFVIEGEGSGKPFEGIQTIDLEVKEGAPLPFAYDILTTAFHYGNRVFTKYPRGGGVPAEGAFTEDFQGLRAEVETISKELELLDRELCQLLLEGLEGVLRDQLALRALEEALEQGQSLGPVEPLDGPAGAVLECLVLSSGMLVPELAIPVVYLLGALTMLSETQHKLLAEALESQTLLGPLELVGSLLEQSAPWQERSTMSLPPGLLGNSWGEGAPAWVLLDECGLELGEDTPHVCWEPQAQGRMCALYASLALLSGLSQEPH | significantly reduced pore opening/closing dynamics

same assay, conditions: charge-altering mutations

Row | Molecule | calcium response of mutants at other putative lipid-binding sites
5 | R7E/R10E/R11E: mutant at the well-conserved N-terminal region of GSDMD (protein, UniProt P57764 1-484, looked up, variant R7E R10E R11E) Gasdermin-D: MGSAFEEVVEEVVQELDHGGEFIPVTSLQSSTGFQPYCLVVRKPSSSWFWKPRYKCVNLSIKDILEPDAAEPDVQRGRSFHFYDAMDGQIQGSVELAAPGQAKIAGGAAVSDSSSTSMNVYSLSVDPNTWQTLLHERHLRQPEHKVLQQLRSRGDNVYVVTEVLQTQKEVEVTRTHKREGSGRFSLPGATCLQGEGQGHLSQKKTVTIPSGSTLAFRVAQLVIDSDLDVLLFPDKKQRTFQPPATGHKRSTSEGAWPQLPSGLSMMRCLHNFLTDGVPAEGAFTEDFQGLRAEVETISKELELLDRELCQLLLEGLEGVLRDQLALRALEEALEQGQSLGPVEPLDGPAGAVLECLVLSSGMLVPELAIPVVYLLGALTMLSETQHKLLAEALESQTLLGPLELVGSLLEQSAPWQERSTMSLPPGLLGNSWGEGAPAWVLLDECGLELGEDTPHVCWEPQAQGRMCALYASLALLSGLSQEPH | much-reduced calcium magnitude
6 | R137E: mutant at another helical region of GSDMD N-terminal domain (protein, UniProt P57764 1-484, looked up, variant R137E) Gasdermin-D: MGSAFERVVRRVVQELDHGGEFIPVTSLQSSTGFQPYCLVVRKPSSSWFWKPRYKCVNLSIKDILEPDAAEPDVQRGRSFHFYDAMDGQIQGSVELAAPGQAKIAGGAAVSDSSSTSMNVYSLSVDPNTWQTLLHEEHLRQPEHKVLQQLRSRGDNVYVVTEVLQTQKEVEVTRTHKREGSGRFSLPGATCLQGEGQGHLSQKKTVTIPSGSTLAFRVAQLVIDSDLDVLLFPDKKQRTFQPPATGHKRSTSEGAWPQLPSGLSMMRCLHNFLTDGVPAEGAFTEDFQGLRAEVETISKELELLDRELCQLLLEGLEGVLRDQLALRALEEALEQGQSLGPVEPLDGPAGAVLECLVLSSGMLVPELAIPVVYLLGALTMLSETQHKLLAEALESQTLLGPLELVGSLLEQSAPWQERSTMSLPPGLLGNSWGEGAPAWVLLDECGLELGEDTPHVCWEPQAQGRMCALYASLALLSGLSQEPH | either encumbering or abrogating the calcium response
